Source: patent US20250213704A1, “METHOD OF TREATING A CANCER WITH A MULTIVALENT PEPTIDE CONJUGATE” (Valitor, Inc, priority 2022, published 2025)

How the values were obtained:
Human VEGF 165 [1] = target: T1, Human VEGF 165 (human, UniProt P15692-4 27-191, Avi tag (as printed under Tags); the tag's sequence and place are not given); assay: BLI (Gator), Avi-tagged human VEGF 165 on the probe, conjugate as analyte, 1:1 global fit; 90.5 kDa CMC, valency 9, 48.41 percent unconjugated peptide
T1 construct: Bought reagent loaded on the BLI probes as ligand; VEGF165 is one isoform of it; also called BLI ligand, Avi tag, R&D Systems AVI-293-050
Procedure: (§1) Either one or two probes per sample (one for kinetic assay and one for ligand free control if used) were equilibrated in 250 μL BLI buffer (PBS pH 7.4, 0.2% Tween and 0.2% BSA filtered at 0.2 μm) for at minimum 10 min in a Gator Bio Max plate. Ligands were diluted to a fixed concentration of 25-100 nM based on performance in pilot reactions in BLI buffer. Analytes were prepared at the top concentration determined in pilot reactions in BLI buffer and serially diluted 1:3 two to five more times using BLI buffer (Table 3). Black flat-bottom non-coated 96 well plates (Greiner Bio One Cat #655209 or similar) were loaded column-wise with 200 μL of ligand, analyte dilutions and one column of BLI buffer for each column of ligand and analyte. One well in each column of analyte was BLI buffer to be used as a blank for reference subtraction. The sample plate was placed in the Gator on a tilted platform set to 25° C. […] Next, the kinetic reads were started using the step parameters. If a ligand-free control was conducted, when kinetic reads were complete with ligand-loaded probes, the ligand free control was run using new probes that were not loaded with the ligand. The same kinetic assay timing and same sample wells were used that were analyzed with ligand loaded probes.
(§2) When kinetic assay was complete, data was analyzed using the Gator software. […]

Human VEGF 165 [2] = target: T1, Human VEGF 165; assay: BLI (Gator), Avi-tagged human VEGF 165 on the probe, conjugate as analyte, 1:1 global fit; 250 kDa CMC, valency 21, 44.37 percent unconjugated peptide
Procedure: as §1, §2

[3] = system: SK-MEL-28 melanoma tumors; assay: Intratumoral pharmacokinetics, in vivo imaging of Sulfo-Cy7 tagged protein after IT injection, tumor type 1; set-up: species or system athymic nude mice
Procedure: FIG. 2A-2C show results of intra-tumoral administration in xenografts in mice. […] The intra-tumoral half-lives were calculated using exponential decay fits of region of interest (ROI) radiant efficiency of infrared-tagged treatment peptides over 168 hours. […] The intra-tumoral half-lives were calculated using exponential decay fits of ROI radiant efficiency of infrared-tagged treatment peptides over 264 hours.
Mouse tumor models for evaluating the clearance rate of proteins from solid tumors were used to measure the intratumoral (IT) half-life of MVPs to maximize the parameters for tumor retention. Antibodies tagged using the amine-reactive Sulfo-Cy7 NHS ester (Broadpharm Cat #BP-22541) near-infrared fluorophore by the following method were used. This method was conducted under aseptic conditions. First, the dye was dissolved DMSO at 10 mg/mL concentration. Then, the protein at 5.0-10.0 mg/mL concentration was mixed with 0.1 M sodium bicarbonate at a 3:2 vol:vol ratio. Lastly, the fluorophore was added at a 1:2 protein:fluorophore molar ratio, mixed well, and incubated at room temperature for one hour on a neutator protected from the light by covering with foil. The NHS esters were quenched by adding 1.5 M Tris buffer pH 8.5 at 10% of the reaction volume and mixed on a neutator for another 10 minutes. The tagged protein was purified away from the unreacted fluorophore using a NAP-10 desalting column (illustra Cat #17-0854-01) that was equilibrated with PBS pH 7.0+0.01% Tween-20 according to the manufacturer's directions. The protein concentration and degree of Cy7 labeling was determined by the absorbance at 280 and 750 nm. […]
Tumors were established by injecting 3×10^6 SK-MEL-28 cells mixed 1:1 with Matrigel (Corning Cat #354234) in a 0.1 mL volume subcutaneously into the right flank of 8 week old athymic nude mice (Table 6). The tumor size was monitored until it reached a size of […]. […] When the study concluded, the half-life of each treatment was determined following injection using exponential decay calculations for optical in vivo imaging (Table 7).

[4] = system: MDA-MB-231 breast cancer tumors; set-up: species or system nude mice; conditions: mouse, in vivo

T1 sequence (P15692 other isoform, or with tags, fused parts or gaps limits assumed): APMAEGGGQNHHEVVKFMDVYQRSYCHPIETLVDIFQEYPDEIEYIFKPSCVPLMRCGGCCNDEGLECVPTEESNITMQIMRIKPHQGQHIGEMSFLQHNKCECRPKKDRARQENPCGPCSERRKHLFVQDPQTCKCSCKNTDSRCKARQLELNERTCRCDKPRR

B1: Conjugate 114: Anti-VEGF VHH (SEQ ID NO: 8) conjugated to 90.5 kDa CMC, valency 9 (other)
VHH: MQVQLVESGGGLVQPGGSLRLSCAASGFAYSTYSMGWFRQAPGKEREAVATINSGTFRLWYTDSVKGRFTISRDNSKNTLYLQMNSLRPEDTAVYYCAARAWSPYSSTVDAGDFRYWGQGTLVTVSSAEAAAKEAAAKEAAAKAGC
modifications: C-terminal Cys thiol linked through a hydrazide-PEG2-maleimide linker to 90.5 kDa carboxymethyl cellulose
notes: Multivalent peptide-polymer conjugate; valency 9 is the mean molar ratio of peptide to polymer; also called anti-VEGF MVP
Kd (Human VEGF 165 [1]): 0.966 nM

B2: Conjugate 115: Anti-VEGF VHH (SEQ ID NO: 8) conjugated to 250 kDa CMC, valency 21 (other)
VHH: MQVQLVESGGGLVQPGGSLRLSCAASGFAYSTYSMGWFRQAPGKEREAVATINSGTFRLWYTDSVKGRFTISRDNSKNTLYLQMNSLRPEDTAVYYCAARAWSPYSSTVDAGDFRYWGQGTLVTVSSAEAAAKEAAAKEAAAKAGC
modifications: C-terminal Cys thiol linked through a hydrazide-PEG2-maleimide linker to 250 kDa carboxymethyl cellulose
notes: Multivalent peptide-polymer conjugate; valency 21 is the mean molar ratio of peptide to polymer; also called anti-VEGF MVP
Kd (Human VEGF 165 [2]): 0.583 nM

B3: Conjugate 110: Anti-VEGF DARPin (SEQ ID NO: 1) conjugated to 700 kDa CMC, MP2H linker, valency 20 (conjugate)
chain: SNAGSDLDKKLLEAARAGQDDEVRILMANGADVNARDSTGWTPLHLAAPWGHPEIVEVLLKNGADVNAADFQGWTPLHLAAAVGHLEIVEVLLKYGADVNAQDKFGKTAFDISIDNGNEDLAEILQKAAGGGSGGGSC
modifications: conjugated to 700 kDa CMC via MP2H linker; aVEGF_Gly_Cys DARPin
IT half-life compared with unconjugated anti-VEGF DARPin and other conjugate (in words) ([3]; mouse, in vivo): longer than that of the unconjugated anti-VEGF DARPin or the peptide conjugated to a 90 kDa CMC
Intratumoral t1/2 ([3]; mouse, in vivo): 48.7 ± 24.7 h

B4: Unconjugated: Unconjugated Sulfo-Cy7 tagged anti-VEGF DARPin (SEQ ID NO: 1), comparator for the conjugates (protein)
chain: SNAGSDLDKKLLEAARAGQDDEVRILMANGADVNARDSTGWTPLHLAAPWGHPEIVEVLLKNGADVNAADFQGWTPLHLAAAVGHLEIVEVLLKYGADVNAQDKFGKTAFDISIDNGNEDLAEILQKAAGGGSGGGSC
modifications: Sulfo-Cy7 label; aVEGF_Gly_Cys DARPin
Intratumoral t1/2 [4]: 15.1 ± 9.8 h

B5: Conjugate 111: Anti-VEGF DARPin (SEQ ID NO: 1) conjugated to 90 kDa CMC, EMCH linker, valency 34 (conjugate)
chain: SNAGSDLDKKLLEAARAGQDDEVRILMANGADVNARDSTGWTPLHLAAPWGHPEIVEVLLKNGADVNAADFQGWTPLHLAAAVGHLEIVEVLLKYGADVNAQDKFGKTAFDISIDNGNEDLAEILQKAAGGGSGGGSC
modifications: 90 kDa CMC via EMCH linker; aVEGF_Gly_Cys DARPin
Intratumoral t1/2 ([3]; Tumor type 1 (SK-MEL-28 melanoma xenograft), 40 μL IT injection, exponential decay fit of ROI radiant efficiency over 168 hours): 18.0 ± 3.4 h

B6: Conjugate 109: Anti-VEGF DARPin (SEQ ID NO: 1) conjugated to 830 kDa HyA, MP2H linker, valency 34 (conjugate)
chain: SNAGSDLDKKLLEAARAGQDDEVRILMANGADVNARDSTGWTPLHLAAPWGHPEIVEVLLKNGADVNAADFQGWTPLHLAAAVGHLEIVEVLLKYGADVNAQDKFGKTAFDISIDNGNEDLAEILQKAAGGGSGGGSC
modifications: conjugated to 830 kDa HyA via MP2H linker; aVEGF_Gly_Cys DARPin
Intratumoral t1/2 [4]: 20.5 ± 7.0 h

B7: Conjugate 101: Anti-VEGF DARPin (SEQ ID NO: 1) conjugated to 700 kDa CMC, MP2H linker, valency 13 (conjugate)
chain: SNAGSDLDKKLLEAARAGQDDEVRILMANGADVNARDSTGWTPLHLAAPWGHPEIVEVLLKNGADVNAADFQGWTPLHLAAAVGHLEIVEVLLKYGADVNAQDKFGKTAFDISIDNGNEDLAEILQKAAGGGSGGGSC
modifications: conjugated to 700 kDa CMC via MP2H linker; aVEGF_Gly_Cys DARPin
IT half-life compared with unconjugated anti-VEGF DARPin and other conjugate (in words) [4]: longer than that of the unconjugated anti-VEGF DARPin or the peptide conjugated to a 830 kDa hyaluronic acid (HyA)
Intratumoral t1/2 [4]: 101.2 ± 34.9 h
